From patent US20050282743A1, “Molecular interactions in cells” (Arbor Vita Corporation, priority 2001, published 2005)
Ends that are not written are not given here. * marks the point of attachment. Biotin = O=C1N[C@H]2[C@H](CS[C@H]2CCCCC(=O)*)N1

What was measured:
Assay in all cases: G' assay (10 uM PL peptide), results of TABLE 7 and TABLE 12
Type in all cases: binding
[1] = tested on: PDZ protein (GST-PDZ fusion)
From the text: (§1) Each page of TABLE 7 and 12 includes seven columns. The columns in each table are numbered from left to right such that the left-most column in each table is column 1 and the right-most column in each table is column 7. Thus, the first column in each table is labeled “AVC ID”; this column simply lists an internal reference number used to refer to the carboxyl-terminal amino acids of the PL proteins listed in the second column. […] All PL peptides were biotinylated at the amino-terminus and the sequences of these PL peptides are presented in TABLE 8 (see end of specification).
(§2) This column provides the gene name for the PDZ portion of the GST-PDZ fusion that interacts with the PDZ-ligand to the left. For PDZ domain-containing proteins with multiple domains, the domain number is listed to the right of the PDZ (i.e., in column 5 labeled “PDZ Domain”), and indicates the PDZ domain number when numbered from the amino-terminus to the carboxy-terminus.
(§3) The third column labeled “Peptide Optimal Concentration” in the tables is a number reflective of the binding interaction between the PL protein and PDZ protein. […] The column labeled “Protein Optimal Concentration” refers to the protein concentration used to assay PL interaction (in ug/ml); a ‘0’ is indicative of 5 ug/ml protein concentration; any other value represents the concentration (in ug/ml) used to determine the dissociation constant for a given interaction.
(§4) Finally, the seventh column labeled “Classification” is another measure of the level of binding. In particular, it provides an absorbance value at 450 nm which indicates the amount of PL peptide bound to the PDZ protein. The following numerical values have the following meanings: ‘1’—A450 nm 0-1; ‘2’—A450 nm 1-2; ‘3’—A450 nm 2-3; ‘4’—A450 nm 3-4; ‘5’—A450 nm of 4 more than 2× repeated; ‘0’—A450 nm 0, i.e., not found to interact. Thus, higher numbers indicate stronger interactions.
(§5) For convenience, the assay conditions described in this section are referred to as the “G′ assay” and the “G″ assay,” with the specific conditions described in the preceding section on G assays being referred to as the “G^0 assay.” The “G′ assay” is identical to the “G^0 assay” except at step (2) the peptide concentration is 10 uM instead of 20 uM.

[2] = molecular target: T1, PDZ protein (GST-PDZ fusion) (Homo sapiens, UniProt Q6P0Q8)
T1 construct: made in house; host or cells: E. coli (DH5alpha, BL21 or JM109)
T1 sequence (Q6P0Q8 whole entry, the tested form may be a part): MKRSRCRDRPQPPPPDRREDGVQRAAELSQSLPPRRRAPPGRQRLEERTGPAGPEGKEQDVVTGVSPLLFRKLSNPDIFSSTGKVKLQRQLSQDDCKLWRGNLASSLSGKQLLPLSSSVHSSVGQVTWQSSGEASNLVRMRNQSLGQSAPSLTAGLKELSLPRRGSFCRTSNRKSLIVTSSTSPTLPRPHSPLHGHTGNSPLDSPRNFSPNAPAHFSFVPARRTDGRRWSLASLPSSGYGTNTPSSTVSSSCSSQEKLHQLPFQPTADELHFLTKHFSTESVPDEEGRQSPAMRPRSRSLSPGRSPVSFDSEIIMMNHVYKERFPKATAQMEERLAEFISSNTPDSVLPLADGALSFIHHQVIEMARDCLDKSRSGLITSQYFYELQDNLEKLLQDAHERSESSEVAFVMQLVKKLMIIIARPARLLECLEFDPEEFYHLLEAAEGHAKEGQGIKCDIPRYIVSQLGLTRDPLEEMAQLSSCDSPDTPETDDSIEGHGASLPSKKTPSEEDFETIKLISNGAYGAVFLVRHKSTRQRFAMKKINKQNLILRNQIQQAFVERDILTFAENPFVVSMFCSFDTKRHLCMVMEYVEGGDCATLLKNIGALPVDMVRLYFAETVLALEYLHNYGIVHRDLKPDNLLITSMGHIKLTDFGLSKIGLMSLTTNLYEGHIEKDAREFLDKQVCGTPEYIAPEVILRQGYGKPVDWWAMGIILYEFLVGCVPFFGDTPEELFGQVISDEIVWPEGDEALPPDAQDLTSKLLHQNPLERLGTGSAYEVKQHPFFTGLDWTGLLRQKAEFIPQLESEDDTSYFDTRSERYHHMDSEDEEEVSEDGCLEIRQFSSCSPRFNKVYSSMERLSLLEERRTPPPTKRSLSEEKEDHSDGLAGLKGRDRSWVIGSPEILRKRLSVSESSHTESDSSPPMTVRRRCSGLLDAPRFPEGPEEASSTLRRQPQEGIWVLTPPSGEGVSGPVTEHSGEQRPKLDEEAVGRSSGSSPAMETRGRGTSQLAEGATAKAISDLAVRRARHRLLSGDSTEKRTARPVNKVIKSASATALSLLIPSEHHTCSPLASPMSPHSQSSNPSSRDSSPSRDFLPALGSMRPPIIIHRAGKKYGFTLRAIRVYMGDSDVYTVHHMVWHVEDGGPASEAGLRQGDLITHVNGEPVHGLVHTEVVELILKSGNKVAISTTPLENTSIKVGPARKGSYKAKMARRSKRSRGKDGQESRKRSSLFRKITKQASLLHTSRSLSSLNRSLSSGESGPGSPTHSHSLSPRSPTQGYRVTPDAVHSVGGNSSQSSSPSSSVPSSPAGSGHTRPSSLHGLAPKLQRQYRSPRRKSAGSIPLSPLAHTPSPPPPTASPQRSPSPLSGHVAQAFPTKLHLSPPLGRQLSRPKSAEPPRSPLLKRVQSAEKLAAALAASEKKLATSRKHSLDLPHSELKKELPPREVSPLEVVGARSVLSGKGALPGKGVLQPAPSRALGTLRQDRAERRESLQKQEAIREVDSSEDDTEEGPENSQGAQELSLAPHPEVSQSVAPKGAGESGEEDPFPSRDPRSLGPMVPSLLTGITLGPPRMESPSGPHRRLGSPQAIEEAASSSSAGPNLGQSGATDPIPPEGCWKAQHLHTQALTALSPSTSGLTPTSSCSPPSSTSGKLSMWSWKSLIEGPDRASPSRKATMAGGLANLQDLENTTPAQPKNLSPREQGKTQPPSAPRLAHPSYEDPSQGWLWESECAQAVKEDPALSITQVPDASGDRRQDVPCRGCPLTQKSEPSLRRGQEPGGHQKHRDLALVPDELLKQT
From the text: as §1, §2, §3, §4, §5

[3] = molecular target: T2, PDZ protein (GST-PDZ fusion) (Homo sapiens, UniProt Q5TCQ9); conditions: PDZ KIAA1634, PDZ Domain 1
T2 construct: made in house; host or cells: E. coli (DH5alpha, BL21 or JM109)
T2 sequence (Q5TCQ9 1-1481): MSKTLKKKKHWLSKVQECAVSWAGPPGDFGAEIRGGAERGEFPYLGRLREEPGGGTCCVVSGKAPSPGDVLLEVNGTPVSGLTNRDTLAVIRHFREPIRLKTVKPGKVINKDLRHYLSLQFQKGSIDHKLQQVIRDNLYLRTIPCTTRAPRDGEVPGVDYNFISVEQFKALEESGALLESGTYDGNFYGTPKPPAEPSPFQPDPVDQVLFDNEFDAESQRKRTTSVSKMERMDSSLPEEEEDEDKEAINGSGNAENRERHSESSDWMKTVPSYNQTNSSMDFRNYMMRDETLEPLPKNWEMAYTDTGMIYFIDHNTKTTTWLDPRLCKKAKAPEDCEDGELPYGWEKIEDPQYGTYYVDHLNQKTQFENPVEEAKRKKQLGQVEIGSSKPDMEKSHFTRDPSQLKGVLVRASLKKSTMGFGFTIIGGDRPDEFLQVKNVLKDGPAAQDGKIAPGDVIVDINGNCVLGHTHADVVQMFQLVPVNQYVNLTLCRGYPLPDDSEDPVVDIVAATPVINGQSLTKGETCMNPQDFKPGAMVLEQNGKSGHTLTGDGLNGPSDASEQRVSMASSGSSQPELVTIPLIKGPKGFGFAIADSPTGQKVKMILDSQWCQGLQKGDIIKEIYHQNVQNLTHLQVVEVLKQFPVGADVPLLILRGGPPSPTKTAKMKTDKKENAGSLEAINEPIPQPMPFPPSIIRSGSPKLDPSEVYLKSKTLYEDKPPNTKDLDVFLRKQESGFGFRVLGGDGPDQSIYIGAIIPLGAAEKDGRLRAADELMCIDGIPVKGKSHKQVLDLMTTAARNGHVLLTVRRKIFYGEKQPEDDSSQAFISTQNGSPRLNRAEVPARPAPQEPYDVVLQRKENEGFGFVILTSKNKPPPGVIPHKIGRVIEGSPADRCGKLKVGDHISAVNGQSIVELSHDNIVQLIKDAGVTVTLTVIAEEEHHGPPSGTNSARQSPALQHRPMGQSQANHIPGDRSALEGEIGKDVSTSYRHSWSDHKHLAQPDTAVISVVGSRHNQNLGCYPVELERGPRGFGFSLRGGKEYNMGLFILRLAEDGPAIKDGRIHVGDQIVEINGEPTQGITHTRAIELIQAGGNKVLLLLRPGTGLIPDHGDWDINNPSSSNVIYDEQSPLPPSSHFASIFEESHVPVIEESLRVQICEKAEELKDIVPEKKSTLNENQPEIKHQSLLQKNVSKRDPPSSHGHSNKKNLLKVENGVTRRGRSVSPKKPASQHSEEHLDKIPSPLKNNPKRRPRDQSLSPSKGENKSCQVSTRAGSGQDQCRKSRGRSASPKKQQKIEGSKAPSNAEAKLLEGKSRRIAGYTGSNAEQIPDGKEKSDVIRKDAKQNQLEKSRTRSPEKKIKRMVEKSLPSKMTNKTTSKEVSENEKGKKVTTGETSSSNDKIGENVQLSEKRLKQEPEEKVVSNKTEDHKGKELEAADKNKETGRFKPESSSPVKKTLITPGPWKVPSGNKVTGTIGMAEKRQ
From the text: as §1, §2, §3, §4, §5

[4] = molecular target: T3, PDZ protein (GST-PDZ fusion) (Homo sapiens, UniProt Q02410)
T3 construct: made in house; host or cells: E. coli (DH5alpha, BL21 or JM109)
T3 sequence (Q02410 1-837): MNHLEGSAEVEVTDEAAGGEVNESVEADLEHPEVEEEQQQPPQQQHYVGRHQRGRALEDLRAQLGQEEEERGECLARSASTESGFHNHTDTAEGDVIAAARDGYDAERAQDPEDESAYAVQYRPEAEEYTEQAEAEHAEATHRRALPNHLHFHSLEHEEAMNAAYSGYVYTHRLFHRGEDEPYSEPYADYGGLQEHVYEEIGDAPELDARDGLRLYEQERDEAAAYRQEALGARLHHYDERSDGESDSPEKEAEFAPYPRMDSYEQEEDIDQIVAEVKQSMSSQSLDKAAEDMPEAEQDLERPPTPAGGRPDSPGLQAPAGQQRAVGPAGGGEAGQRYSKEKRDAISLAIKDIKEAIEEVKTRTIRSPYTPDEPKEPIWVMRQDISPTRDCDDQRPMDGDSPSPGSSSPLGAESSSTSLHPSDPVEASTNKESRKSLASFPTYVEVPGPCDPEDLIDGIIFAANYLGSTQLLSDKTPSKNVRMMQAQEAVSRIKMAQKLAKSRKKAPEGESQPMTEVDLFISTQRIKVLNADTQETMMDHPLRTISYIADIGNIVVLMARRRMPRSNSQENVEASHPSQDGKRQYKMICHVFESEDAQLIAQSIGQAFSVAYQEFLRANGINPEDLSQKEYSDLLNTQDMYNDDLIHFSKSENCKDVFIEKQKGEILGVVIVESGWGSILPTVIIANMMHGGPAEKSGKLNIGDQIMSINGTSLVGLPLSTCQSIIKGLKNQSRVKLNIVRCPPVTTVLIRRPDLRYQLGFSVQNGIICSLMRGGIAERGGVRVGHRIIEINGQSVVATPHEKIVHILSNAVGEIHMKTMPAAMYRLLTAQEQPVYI
From the text: as §1, §2, §3, §4, §5

[5] = molecular target: T4, PDZ protein (GST-PDZ fusion) (Homo sapiens, UniProt Q12923); conditions: PDZ PTPL-1, PDZ Domain 4
T4 construct: made in house; host or cells: E. coli (DH5alpha, BL21 or JM109)
T4 sequence (Q12923 whole entry, the tested form may be a part): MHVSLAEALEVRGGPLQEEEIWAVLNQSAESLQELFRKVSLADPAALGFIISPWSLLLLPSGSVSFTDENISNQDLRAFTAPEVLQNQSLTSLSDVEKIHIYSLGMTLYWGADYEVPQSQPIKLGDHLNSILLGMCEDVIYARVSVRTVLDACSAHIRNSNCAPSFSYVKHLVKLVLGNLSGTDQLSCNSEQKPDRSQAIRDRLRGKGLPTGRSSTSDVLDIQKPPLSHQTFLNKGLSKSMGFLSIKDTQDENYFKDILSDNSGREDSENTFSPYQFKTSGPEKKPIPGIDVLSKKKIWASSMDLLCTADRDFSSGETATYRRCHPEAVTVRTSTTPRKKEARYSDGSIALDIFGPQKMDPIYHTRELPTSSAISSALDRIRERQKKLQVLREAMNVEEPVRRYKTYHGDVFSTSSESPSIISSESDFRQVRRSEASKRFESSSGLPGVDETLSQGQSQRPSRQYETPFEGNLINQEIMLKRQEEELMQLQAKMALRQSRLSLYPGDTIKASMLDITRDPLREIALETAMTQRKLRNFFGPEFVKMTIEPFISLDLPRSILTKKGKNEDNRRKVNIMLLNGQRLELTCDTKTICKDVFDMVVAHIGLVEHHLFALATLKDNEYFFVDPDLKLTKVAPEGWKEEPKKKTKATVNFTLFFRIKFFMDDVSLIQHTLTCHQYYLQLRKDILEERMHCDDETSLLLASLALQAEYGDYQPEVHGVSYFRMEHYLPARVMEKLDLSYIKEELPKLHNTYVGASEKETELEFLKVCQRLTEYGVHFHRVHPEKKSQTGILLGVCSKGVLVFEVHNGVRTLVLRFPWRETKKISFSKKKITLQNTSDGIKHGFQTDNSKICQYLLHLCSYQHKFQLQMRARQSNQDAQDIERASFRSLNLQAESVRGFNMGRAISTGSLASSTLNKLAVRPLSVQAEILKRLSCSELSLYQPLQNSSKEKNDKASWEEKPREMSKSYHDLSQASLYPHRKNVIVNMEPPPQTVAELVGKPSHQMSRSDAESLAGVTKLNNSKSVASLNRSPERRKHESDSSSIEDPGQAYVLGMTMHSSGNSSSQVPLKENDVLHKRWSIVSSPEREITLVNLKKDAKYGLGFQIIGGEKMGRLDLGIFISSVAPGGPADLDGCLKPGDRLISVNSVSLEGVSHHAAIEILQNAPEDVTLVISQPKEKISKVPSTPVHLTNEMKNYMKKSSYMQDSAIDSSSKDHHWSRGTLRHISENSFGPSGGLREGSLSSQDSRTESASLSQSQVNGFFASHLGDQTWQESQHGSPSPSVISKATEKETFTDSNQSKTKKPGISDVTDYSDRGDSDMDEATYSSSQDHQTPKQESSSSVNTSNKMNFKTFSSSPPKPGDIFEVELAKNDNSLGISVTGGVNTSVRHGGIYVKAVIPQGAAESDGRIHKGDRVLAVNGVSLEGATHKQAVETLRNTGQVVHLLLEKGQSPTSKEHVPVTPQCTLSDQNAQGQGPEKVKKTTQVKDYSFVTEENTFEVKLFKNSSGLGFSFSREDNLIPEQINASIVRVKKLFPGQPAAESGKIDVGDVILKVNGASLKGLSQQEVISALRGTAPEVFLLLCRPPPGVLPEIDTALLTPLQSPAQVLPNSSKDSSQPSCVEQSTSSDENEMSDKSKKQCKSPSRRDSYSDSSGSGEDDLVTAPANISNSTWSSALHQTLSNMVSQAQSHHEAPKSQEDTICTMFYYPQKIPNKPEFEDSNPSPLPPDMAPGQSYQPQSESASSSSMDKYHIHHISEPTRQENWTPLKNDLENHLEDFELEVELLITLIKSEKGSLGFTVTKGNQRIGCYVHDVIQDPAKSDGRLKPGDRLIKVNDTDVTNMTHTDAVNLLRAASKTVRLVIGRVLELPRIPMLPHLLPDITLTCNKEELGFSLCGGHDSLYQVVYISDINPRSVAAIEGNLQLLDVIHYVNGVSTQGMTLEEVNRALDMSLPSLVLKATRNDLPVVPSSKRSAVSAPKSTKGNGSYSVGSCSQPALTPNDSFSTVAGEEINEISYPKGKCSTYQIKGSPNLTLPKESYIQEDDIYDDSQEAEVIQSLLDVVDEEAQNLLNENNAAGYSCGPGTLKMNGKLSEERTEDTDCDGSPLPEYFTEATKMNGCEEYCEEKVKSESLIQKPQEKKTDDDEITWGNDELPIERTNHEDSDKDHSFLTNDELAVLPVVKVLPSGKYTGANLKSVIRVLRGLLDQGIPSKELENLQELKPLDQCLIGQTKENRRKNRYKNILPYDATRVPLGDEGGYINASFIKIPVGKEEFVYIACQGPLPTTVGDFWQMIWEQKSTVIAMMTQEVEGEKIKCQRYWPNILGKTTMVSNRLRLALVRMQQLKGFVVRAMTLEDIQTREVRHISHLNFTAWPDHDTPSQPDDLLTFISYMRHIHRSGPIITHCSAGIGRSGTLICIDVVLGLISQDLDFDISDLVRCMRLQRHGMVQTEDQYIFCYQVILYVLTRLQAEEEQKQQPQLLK
From the text: as §1, §2, §3, §4, §5

[6] = molecular target: T5, PDZ protein (GST-PDZ fusion) (Homo sapiens, UniProt O75970)
T5 construct: made in house; host or cells: E. coli (DH5alpha, BL21 or JM109)
From the text: as §1, §2, §3, §4, §5

[7] = molecular target: T6, PDZ protein (GST-PDZ fusion) (Homo sapiens, UniProt Q8NI35); conditions: PDZ INADL, PDZ Domain 8
T6 construct: made in house; host or cells: E. coli (DH5alpha, BL21 or JM109)
From the text: as §1, §2, §3, §4, §5

[8] = molecular target: T7, PDZ protein (GST-PDZ fusion) (Homo sapiens, UniProt O15018); conditions: PDZ AIPC, PDZ Domain 1
T7 construct: made in house; host or cells: E. coli (DH5alpha, BL21 or JM109)
From the text: as §1, §2, §3, §4, §5

[9] = molecular target: T8, PDZ protein (GST-PDZ fusion) (Homo sapiens, UniProt Q12959); conditions: PDZ DLG1, PDZ Domain 1, 2
T8 construct: made in house; host or cells: E. coli (DH5alpha, BL21 or JM109)
From the text: as §1, §2, §3, §4, §5

[10] = PDZ KIAA807, PDZ Domain not given

PGQPPKVKSEFNSYSLTGYV (Biotin-PGQPPKVKSEFNSYSLTGYV) [claudin 2]
Classification ([1]; PDZ BAI-1, PDZ Domain 3): 1 (A450 nm 0-1) | Classification ([2]; PDZ KIAA807): 1 (A450 nm 0-1) | Classification [3]: 1 (A450 nm 0-1) | Classification ([4]; PDZ Mint 1, PDZ Domain 1, 2): 2 (A450 nm 1-2)

PRLKRMQQFEDLEDEIPQFV (Biotin-PRLKRMQQFEDLEDEIPQFV) [RhoGAP 1 (PTPL1-associated)]
Classification [5]: 2 (A450 nm 1-2)

KAGYRAPRSYPKSNSSKEYV (Biotin-KAGYRAPRSYPKSNSSKEYV) [claudin 7]
Classification ([4]; PDZ Mint 1, PDZ Domain 1, 2): 4 (A450 nm 3-4)

IVFIHSFLSAKVTRLGLLA (Biotin-IVFIIHSFLSAKVTRLGLLA) [alpha-1-syntrophin]
Classification ([2]; PDZ KIAA0807(S), PDZ Domain 1): 1 (A450 nm 0-1)

LGYSIPSRSGASGLDKRDYV (Biotin-LGYSIPSRSGASGLDKRDYV) [claudin 9]
Classification ([4]; PDZ Mint 1, PDZ Domain 1, 2): 1 (A450 nm 0-1)

DGGARTEDEVQSYPSKHDYV (Biotin-DGGARTEDEVQSYPSKHDYV) [claudin 18]
Classification ([4]; PDZ Mint 1, PDZ Domain 1, 2): 1 (A450 nm 0-1)

SPQPDSTDNDDYDDISAA (Biotin-SPQPDSTDNDDYDDISAA) [CD6]
Classification ([2]; PDZ KIAA0807(S), PDZ Domain 1): 1 (A450 nm 0-1) | Classification [2, 10]: 1 (A450 nm 0-1)

RDSFHRSSFRKAETQLSQGS (Biotin-RDSFHRSSFRKAETQLSQGS) [Clasp-5]
Classification ([1]; PDZ BAI-1, PDZ Domain 2): 1 (A450 nm 0-1) | Classification ([1]; PDZ SHANK, PDZ Domain 1): 1 (A450 nm 0-1) | Classification ([2]; PDZ KIAA807): 1 (A450 nm 0-1) | Classification ([2]; PDZ KIAA0807(S), PDZ Domain 1): 1 (A450 nm 0-1)

C5AR_HUMAN (Biotin-ESKSFTRSTVDTMAQKTQAV)
Classification [5]: 1 (A450 nm 0-1)

TALRIKKTLAKMVESQDVKI (Biotin-TALRIKKTLAKMVESQDVKI) [bone morphogenetic protein receptor]
Classification ([6]; PDZ MUPP-1, PDZ Domain 3): 1 (A450 nm 0-1) | Classification ([6]; PDZ MUPP-1, PDZ Domain 7): 1 (A450 nm 0-1) | Classification ([6]; PDZ MUPP-1, PDZ Domain 9): 1 (A450 nm 0-1) | Classification ([2]; PDZ KIAA0807(S), PDZ Domain 1): 1 (A450 nm 0-1)

ENLELPVNPSSVVSERISSV (Biotin-ENLELPVNPSSVVSERISSV) [serotonin receptor 5-HT-2C]
Classification ([6]; PDZ MUPP-1, PDZ Domain 10): 1 (A450 nm 0-1) | Classification [7]: 1 (A450 nm 0-1)

SYPTPRPYPKPAPSSGKDYV (Biotin-SYPTPRPYPKPAPSSGKDYV) [claudin 1]
Classification ([4]; PDZ Mint 1, PDZ Domain 2): 1 (A450 nm 0-1) | Classification [7]: 1 (A450 nm 0-1)

KPQIAALKEETEEEVQDTRL (Biotin-KPQIAALKEETEEEVQDTRL)
Classification ([1]; PDZ SHANK, PDZ Domain 1): 1 (A450 nm 0-1) | Classification ([2]; PDZ KIAA0807(S), PDZ Domain 1): 2 (A450 nm 1-2) | Classification [2, 10]: 1 (A450 nm 0-1)

PVYIVQEMPPQSPANIYYKV (Biotin-PVYIVQEMPPQSPANIYYKV) [ephrin B1]
Classification ([6]; PDZ MUPP-1, PDZ Domain 3): 1 (A450 nm 0-1) | Classification ([6]; PDZ MUPP-1, PDZ Domain 7): 1 (A450 nm 0-1) | Classification ([6]; PDZ MUPP-1, PDZ Domain 9): 1 (A450 nm 0-1) | Classification [5]: 2 (A450 nm 1-2) | Classification ([2]; PDZ KIAA0807(S), PDZ Domain 1): 1 (A450 nm 0-1) | Classification ([2]; PDZ KIAA807 (domain not given)): 1 (A450 nm 0-1)

VISKATPALPTVSISSSAEV (Biotin-VISKATPALPTVSISSSAEV) [Clasp-1]
Classification ([2]; PDZ KIAA0807(S), PDZ Domain 1): 1 (A450 nm 0-1) | Classification [2, 10]: 1 (A450 nm 0-1) | Classification [8]: 1 (A450 nm 0-1) | Classification ([4]; PDZ Mint 1, PDZ Domain 1, 2): 1 (A450 nm 0-1)

GGEDFKTTNPSKQFDKNAYV (Biotin-GGEDFKTTNPSKQFDKNAYV) [claudin 10]
Classification [9]: 1 (A450 nm 0-1) | Classification [3]: 1 (A450 nm 0-1)
